# Experimental data taken from the supplement of paper PMC10724198.
# ± gives the standard deviation of the averaged measurements.
# System: Saccharomyces cerevisiae
# Experiment: protein stability index of tFT-peptide fusion (C-terminal peptide) (PSI (0-1 scale)); higher = more stable (slower turnover)
# Details: genetic background: wild type; temperature: 30 C
# 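Further: PSI is a weighted mean of sequencing reads over stability bins, variants kept only with over 10 reads, mCherry proximal and sfGFP distal, peptide attached via GGGS linker.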
row,Sequence,protein stability index
1,VARRGLFLSISW,0.596 ± 0.088
2,VFSTFGSCHICC,0.636 ± 0.033
3,KAAQREVDLLVT,0.668 ± 0.021
4,PSLTLPPSPRFP,0.7585 ± 0.0029
5,LPVVGLVPPARS,0.5103 ± 0.003
6,RRRENAKENEIK,0.812 ± 0.13
7,LPAPRFLVPAFL,0.637 ± 0.025
8,LYCLVEGVYTLI,0.662 ± 0.06
9,RRLQGKWIWQNH,0.731 ± 0.055
10,ERGGGRRRLSNA,0.656 ± 0.062
11,SPIHSLNYASSC,0.7217 ± 0.0015
12,VGPCGGVGHLGS,0.73 ± 0.036
13,VSVSSFCVLQSC,0.547 ± 0.008
14,KKKKEKKETKKK,0.67 ± 0.028
15,GWVQRGAEARRE,0.705 ± 0.047
16,EGVGRGCSGGCW,0.713 ± 0.055
17,RACLVWKSLGWV,0.605 ± 0.084
18,YVAGECVFVCWE,0.657 ± 0.04
19,GVTYEDFWGYCG,0.797 ± 0.018
20,HPTTHYLPRPAH,0.6779 ± 0.0022
21,GGFCRLRYLVCP,0.544 ± 0.039
22,NQCRSQVRQNGY,0.762 ± 0.15
23,SWYSLVWTSSER,0.695 ± 0.054
24,GSWLGGRTLAGI,0.707 ± 0.036
25,PPPLPPSPPHHP,0.689 ± 0.04
26,VLPSSSPPGLRC,0.6698 ± 0.0059

row,Sequence,protein stability index
1,RGGAGGRQGCGG,0.746 ± 0.043
2,FWIRGVTRCVWC,0.724 ± 0.053
3,MATLRVPTLSPD,0.5743 ± 0.004
4,SSPLPPPSRAAC,0.762 ± 0.011
5,AGICLRSFRCFW,0.672 ± 0.0079
6,PPPHPALPHPLH,0.682 ± 0.01
7,VRVFLSNALFHH,0.596 ± 0.019
8,STVPGRPKLTLV,0.578 ± 0.032
9,SRGGGRSEGGEG,0.695 ± 0.033
10,PPPFPPPPARSL,0.474 ± 0.043
11,GPGTAMCLWWWG,0.692 ± 0.0085
12,KKMKEKKKRNHA,0.712 ± 0.035
13,PALPTPILSSPP,0.709 ± 0.012
14,VGVAREGQVGAA,0.694 ± 0.024
15,PPPPPLPPAPPP,0.558 ± 0.022
16,LPVPTLGRPLSL,0.69 ± 0.034
17,PVPPPLSPLPTP,0.703 ± 0.11
18,VRWGVVGVQGNW,0.678 ± 0.021
19,LRHSCSTYRIFS,0.683 ± 0.028
20,GVMCRTGSGMVM,0.711 ± 0.021
21,GVVGGGGEAWRE,0.794 ± 0.038
22,PPNLLPRPPPRG,0.559 ± 0.047
23,PPSVPSRLSHVL,0.69 ± 0.034
24,VAPDSARVFHFV,0.64 ± 0.025
25,KKKKKQKDTKHR,0.682 ± 0.018
26,PLPYSPPLHVYP,0.691 ± 0.023

row,Sequence,protein stability index
1,GEGGENRRNGTV,0.7 ± 0.12
2,PHAPSHLPSSLP,0.712 ± 0.025
3,TVRLAPCPLSDT,0.744 ± 0.075
4,FFAFLLRSPSTS,0.711 ± 0.064
5,PPSLFRFPPPPR,0.709 ± 0.074
6,LVKKVKSSLASL,0.65 ± 0.076
7,KVVSGLKSGPVQ,0.677 ± 0.055
8,STAKTARRKREK,0.671 ± 0.0094
9,GGVGRGVGRGWG,0.671 ± 0.03
10,SMDISYLISFQR,0.7426 ± 0.0049
11,FPPPPPPLTVLP,0.728 ± 0.054
12,PVASFLACSIAG,0.602 ± 0.032
13,RAWELPRLRGRE,0.6682 ± 0.0039
14,AVISDVSLKPNF,0.673 ± 0.082
15,SSPSPPRPPAPF,0.704 ± 0.091
16,NKKKKQRGKKQK,0.725 ± 0.045
17,FAGNRDQEEERK,0.706 ± 0.022
18,SPRPPLLLPVTV,0.53 ± 0.26
19,SFPPFSPLYSPP,0.717 ± 0.067
20,FRLLFSFFWGYV,0.595 ± 0.033
21,HSSFCIVIRVSR,0.5125 ± 0.001
22,SRKTDTRLTMIN,0.692 ± 0.032
23,PPPRPPRPPCPF,0.732 ± 0.059
24,YPRPIPSISRTS,0.731 ± 0.053
25,PRDQPPDGHASP,0.6717 ± 0.002
26,FEIVARTYNVDT,0.666 ± 0.023

row,Sequence,protein stability index
1,PFVGSSPFPLCL,0.645 ± 0.042
2,TRAKVQSRGSLS,0.708 ± 0.039
3,CTGLEGGGLPFR,0.636 ± 0.12
4,VLKYSVQHREFS,0.685 ± 0.019
5,GNKKENEKKEKK,0.734 ± 0.022
6,RNYEGTKIEEQE,0.7219 ± 0.0047
7,SLPVLSSRTSIQ,0.687 ± 0.012
8,PGPLVFPLPLAC,0.578 ± 0.036
9,WGVGWSGRVGGS,0.647 ± 0.045
10,LHDICADRSSIL,0.739 ± 0.009
11,PALPPPVLLRLP,0.557 ± 0.062
12,TQSPANIIQRKT,0.672 ± 0.024
13,PTVNIDSQSRSP,0.692 ± 0.079
14,VGVGAGQWVVWY,0.682 ± 0.028
15,WLVRHLGFVPWI,0.7 ± 0.028
16,EQDDGARMIRRV,0.683 ± 0.027
17,SLVVFGFGGYLL,0.686 ± 0.021
18,SAGHHACRRYAG,0.683 ± 0.037
19,YLQPSGSRPGAK,0.715 ± 0.014
20,GFRCTVWGRAVI,0.637 ± 0.052
21,GVVWMSCGGGGG,0.7684 ± 0.0017
22,RVSWGRTGTLRN,0.681 ± 0.018
23,SVFPHPYMVVRS,0.598 ± 0.0092
24,GSLLVCGMVAGM,0.5236 ± 0.0046
25,RLSSCSAPFPLL,0.7194 ± 0.0068
26,PPPPPPCSPATS,0.747 ± 0.14

row,Sequence,protein stability index
1,MSGPHGGVADRD,0.676 ± 0.054
2,APPPMPLPLIPL,0.633 ± 0.04
3,LVRRTLWGSGCL,0.666 ± 0.013
4,EERGGDNVTVCG,0.745 ± 0.031
5,IDRSHFAGVIVC,0.5735 ± 0.0029
6,GSAACPVRGRFF,0.639 ± 0.095
7,KEILATRQKSST,0.738 ± 0.04
8,IARLLFPPPGPI,0.643 ± 0.037
9,QRCAVRSSFYVL,0.641 ± 0.059
10,GRGGGGVEPCFV,0.669 ± 0.07
11,KGRFTKTKLRVH,0.5602 ± 0.0013
12,WFSRVSSASRRS,0.7073 ± 0.00084
13,VIMGRGGGNVGG,0.701 ± 0.053
14,GVGGGGVGLWLG,0.656 ± 0.025
15,APPRPPPRPHPP,0.571 ± 0.063
16,WGGGPGLRVVGG,0.731 ± 0.026
17,RQRLGLRIIIPS,0.624 ± 0.017
18,LPRFRNRFPRRW,0.664 ± 0.036
19,SDEIKTLGLRKK,0.683 ± 0.025
20,RSPLPFPGASVP,0.747 ± 0.039
21,ALASLPPQPHSP,0.665 ± 0.047
22,KGNDQVLRLFIR,0.73 ± 0.021
23,SASAILPWAIKL,0.639 ± 0.075
24,CSFCVLGPGLHL,0.672 ± 0.047
25,PRAGPLAALSLS,0.695 ± 0.026
26,PNKRLKERGDPS,0.695 ± 0.086

row,Sequence,protein stability index
1,VMGFCDWLGVFL,0.728 ± 0.012
2,CGEALGVSWMTL,0.684 ± 0.0038
3,EVRSDSFFKCEG,0.6606 ± 0.0046
4,LLGLVGGVVGLA,0.624 ± 0.01
5,FPDPTPNLRPPP,0.636 ± 0.034
6,EGSPIVNSLALD,0.668 ± 0.017
7,RDQMDNILQRFR,0.656 ± 0.077
8,TANRVDDSILSS,0.671 ± 0.024
9,WVCARQVGIGWG,0.6657 ± 0.0019
10,KRILKEKRRKKN,0.658 ± 0.036
11,LVLVEAPASRNP,0.72449 ± 0.00013
12,LLPSPLPPHPPP,0.637 ± 0.053
13,SNIGFLLCSLFL,0.59078 ± 4.5e-05
14,REGGDPPDGGTG,0.734 ± 0.039
15,LGGGGRWVVPGA,0.722 ± 0.029
16,HLLLGPRSPPSP,0.661 ± 0.022
17,PLPPPRPSPGLL,0.67 ± 0.1
18,VAVDGSDQGGTR,0.64 ± 0.079
19,PTPPTPTISPTP,0.651 ± 0.0052
20,KGRGEVGTRRYG,0.638 ± 0.079
21,GRKGARESSNEI,0.667 ± 0.0075
22,PVGEEPRPRNVR,0.674 ± 0.063
23,PPPPPSPPPPPH,0.704 ± 0.0074
24,WGSSGCLFGTVG,0.769 ± 0.12
25,PRPCLPPDPPPS,0.654 ± 0.0071
26,DGSIGASPGRGL,0.695 ± 0.015

row,Sequence,protein stability index
1,GDMVRVSYRGRR,0.674 ± 0.053
2,NVIGSGLFVGWD,0.795 ± 0.087
3,QVWMRDCARKFQ,0.731 ± 0.012
4,FLFSYIEGSPNP,0.721 ± 0.073
5,KKNKHKEKIKKK,0.723 ± 0.069
6,GGGGAVRAWGLR,0.736 ± 0.019
7,PPPPPPRPPSAH,0.708 ± 0.087
8,SFAPPLRCPPSS,0.709 ± 0.02
9,NLCRFHFRNRFS,0.565 ± 0.011
10,GVGYRLGACPDR,0.695 ± 0.053
11,YPRGFPTLSYSS,0.727 ± 0.023
12,LCLRPVISLPHL,0.716 ± 0.075
13,PPHPPPPATPCP,0.682 ± 0.013
14,LLGPSGRAIKIQ,0.6659 ± 0.0013
15,GLAGWCGGGWAL,0.705 ± 0.026
16,EGVGGGRWCGRG,0.666 ± 0.055
17,KRPVTPTFGRLQ,0.645 ± 0.067
18,FCPEGGYSVFYL,0.719 ± 0.019
19,YRRASGGTVEDM,0.721 ± 0.024
20,PRPRLPVLPSPS,0.641 ± 0.098
21,PDLLHLPAHRHA,0.6722 ± 0.0055
22,LSVEAGRGELLW,0.69 ± 0.067
23,VGKCGSGCLHST,0.6313 ± 0.004
24,LSFFLFLLSPFY,0.582 ± 0.028
25,PLALPLPRLVLP,0.643 ± 0.026
26,GFALSFCFCFPL,0.558 ± 0.029

row,Sequence,protein stability index
1,FMACGVNIELRV,0.643 ± 0.0088
2,GVGCGGACRPVG,0.662 ± 0.09
3,LPHSPSLPPAFP,0.708 ± 0.032
4,PFSNFFFRLSFS,0.665 ± 0.028
5,PTVFMNIQKQNI,0.678 ± 0.042
6,PSVPSAAPPSSA,0.703 ± 0.02
7,RSPHGLRSRIQR,0.72 ± 0.037
8,SCYHGDYCTVAW,0.7062 ± 0.0017
9,YGPRNRNPPNAG,0.688 ± 0.099
10,DGGVPGVMVVGE,0.644 ± 0.024
11,APFRVALPGVCG,0.623 ± 0.02
12,GGVGGGGREWRR,0.683 ± 0.033
13,LWPSLRRFHSTS,0.714 ± 0.2
14,CLWSDQLFFYFG,0.734 ± 0.025
15,RGRWGVYISSWV,0.626 ± 0.048
16,DKKHRAPGIKIV,0.5008 ± 0.0018
17,ALPPPLPPPAGP,0.699 ± 0.077
18,VVVLCGGSGGVG,0.652 ± 0.059
19,TKKKKKKNKKQE,0.683 ± 0.012
20,PSAFQCQWKTSA,0.6383 ± 0.0014
